Measured values from PMC8196007.

Molecular target: solubilized kinase domain of B-Raf (sB-Raf), unlabeled (human) (UniProt P15056)
Test: native MS; LILBID-MS of the BS3-crosslinked sample and of non-crosslinked mixtures, sB-Raf:CDC-37:FKB-6:HSP-90 = 1:1:1:1 or as indicated; 25 mM Tris, 20 mM KCl, pH 7.5

B1: nematode CDC-37 (natural protein)
chain: MPIDYSKWKDIEVSDDEDDTHPNIDTPSLFRWRHQARLERMAEKKMEQEKIDKEKGTTSKKMEELEKKLAAADVTDKSDIQKQIDEVKAQEEAWRKKEAELEEKERLEPWNVDTIGHEAFSTSRINKITEKKPQAPKTDEEDTHAMSTFFETHESLLEKMAVLKNGAKSTELFLAEHPHMASEYTANWLTIEALNAAIDFNEEKMKTMAEQCIIIQYLLELSKSLNAVATNTTVQKQFFKKFEAAEPVYMKHYQDEVKAFEDRLRTRAQTKRDAAMEEAEAEEKAERMKSAPGGIDPQEVFEQLPEEMRKCFEAHDIEALKGVAQKMDEEVFKYHFDRCIASGLWVPGKADDDDDDEEAAPAEEEPTTSS
stoichiometry N: 1
